{"source": "patent US20150344570A1", "about": "(published 2015)", "target": "T1, FcγRIIIa F extracellular domain with C-terminal His tag (human, UniProt P08637 17-208)", "T1 construct": "extracellular domain; Soluble receptor, F158 allotype; also called FcgRIIIa F; FcgRIIIaF; not shown: His tag at the C terminus", "T1 sequence (P08637 17-208)": "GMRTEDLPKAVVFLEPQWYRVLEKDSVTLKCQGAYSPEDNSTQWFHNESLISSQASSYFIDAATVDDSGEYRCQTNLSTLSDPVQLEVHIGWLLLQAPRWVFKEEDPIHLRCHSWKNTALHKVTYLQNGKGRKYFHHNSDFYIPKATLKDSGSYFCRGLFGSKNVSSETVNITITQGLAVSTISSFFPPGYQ", "experiment": "SPR (Biacore); KD for FcγRIIb divided by KD for FcγRIIIa F", "experimental": "The prepared antibodies were assayed as to the KDs for FcγRIIIa and FcγRIIb according to the method described in Reference Example 2.\nAnalysis of interaction between objective antibody and the FcγR was carried out using Biacore T100 (GE Healthcare). HBS-EP+ (GE Healthcare) was used as the running buffer, and the measurement temperature was set to 25° C. Chips produced by immobilizing the antigen peptide by the amine coupling method to a Series S Sencor Chip CM5 (GE Healthcare), or alternatively, chips produced by allowing preliminarily biotinylated antigen peptides to interact with and immobilize onto a Series S Sensor Chip SA (certified) (GE Healthcare) were used. Antibodies of interest were captured onto an antigen peptide-immobilized chip, and allowed to interact to each FcγR diluted with running buffer. To regenerate and repeatedly use the chip, the antibodies captured on the chip were washed off by reacting 10 mM glycine-HCl, pH 1.5."}
{"binder": "GpH7-TA7/GpH7-B78/GpL16-k0 (antibody, human IgG1, kappa, Heterodimerized anti-glypican-3 IgG1; also called TA7/B78) heavy 1: QVQLVQSGAEVKKPGASVTVSCKASGYTFTDYEMHWIRQPPGEGLEWIGAIDPKTGDTAYSESFQDRVTLTADKSTSTAYMELSSLTSEDTAVYYCTRFYSYTYWGQGTLVTVSSASTKGPSVFPLAPSSKSTSGGTAALGCLVKDYFPEPVTVSWNSGALTSGVHTFPAVLQSSGLYSLSSVVTVPSSSLGTQTYICNVNHKPSNTKVDKKVEPKSCDKTHTCPPCPAPEYLWGPSVFLFPPKPKDTLMISRTPEVTCVVVDVSHEDPEVKFNWYVDGVEVHNAKTKPREEQYNATYRVVSVLTVLHQDWLNGKEYKCKVSNKALPAPIEKTISKAKGQPREPQVYTLPPSRKELTKNQVSLTCLVKGFYPSDIAVEWESNGQPENNYKTTPPVLDSDGSFFLYSKLTVDKSRWQQGNVFSCSVMHEALHNRYTQKSLSLSP heavy 2: QVQLVQSGAEVKKPGASVTVSCKASGYTFTDYEMHWIRQPPGEGLEWIGAIDPKTGDTAYSESFQDRVTLTADKSTSTAYMELSSLTSEDTAVYYCTRFYSYTYWGQGTLVTVSSASTKGPSVFPLAPSSKSTSGGTAALGCLVKDYFPEPVTVSWNSGALTSGVHTFPAVLQSSGLYSLSSVVTVPSSSLGTQTYICNVNHKPSNTKVDKKVEPKSCDKTHTCPPCPAPELLGGPDVFLFPPKPKDTLMISRTPEVTCVVVDVSHEDPEVKFNWYVDGVEVHNAKTKPREEQYNSTYRVVSVLTVLHQDWLNGKEYKCKVSNKALPLPEEKTISKAKGQPREPQVYTLPPSRDELTKNQVSLTCLVKGFYPSDIAVEWESNGQPENNYKTTPPVLDSDGSFFLYSKLTVDKSRWQQGNVFSCSVMHEALHNHYTQESLSLSP light: DIVMTQSPLSLPVTPGEPASISCQASESLVHSNRNTYLHWYLQKPGQSPQLLIYKVSNRFSGVPDRFSGSGSGTDFTLKISRVEAEDVGVYYCSQNTHVPPTFGQGTKVEIERTVAAPSVFIFPPSDEQLKSGTASVVCLLNNFYPREAKVQWKVDNALQSGNSQESVTEQDSKDSTYSLSSTLTLSKADYEKHKVYACEVTHQGLSSPVTKSFNRGEC", "values": [{"measurement": "FcγRIIIa F/FcγRIIb ratio", "value": 244}]}
{"binder": "GpH7-TA7/GpH7-TA45/GpL16-k0 (antibody, human IgG1, kappa, Anti-glypican-3 IgG1; also called TA7/TA45) heavy 1: QVQLVQSGAEVKKPGASVTVSCKASGYTFTDYEMHWIRQPPGEGLEWIGAIDPKTGDTAYSESFQDRVTLTADKSTSTAYMELSSLTSEDTAVYYCTRFYSYTYWGQGTLVTVSSASTKGPSVFPLAPSSKSTSGGTAALGCLVKDYFPEPVTVSWNSGALTSGVHTFPAVLQSSGLYSLSSVVTVPSSSLGTQTYICNVNHKPSNTKVDKKVEPKSCDKTHTCPPCPAPEYLWGPSVFLFPPKPKDTLMISRTPEVTCVVVDVSHEDPEVKFNWYVDGVEVHNAKTKPREEQYNATYRVVSVLTVLHQDWLNGKEYKCKVSNKALPAPIEKTISKAKGQPREPQVYTLPPSRKELTKNQVSLTCLVKGFYPSDIAVEWESNGQPENNYKTTPPVLDSDGSFFLYSKLTVDKSRWQQGNVFSCSVMHEALHNRYTQKSLSLSP heavy 2: QVQLVQSGAEVKKPGASVTVSCKASGYTFTDYEMHWIRQPPGEGLEWIGAIDPKTGDTAYSESFQDRVTLTADKSTSTAYMELSSLTSEDTAVYYCTRFYSYTYWGQGTLVTVSSASTKGPSVFPLAPSSKSTSGGTAALGCLVKDYFPEPVTVSWNSGALTSGVHTFPAVLQSSGLYSLSSVVTVPSSSLGTQTYICNVNHKPSNTKVDKKVEPKSCDKTHTCPPCPAPEYLWGPSVFLFPPKPKDTLMISRTPEVTCVVVDVSHEDPEVKFNWYVDGVEVHNAKTKPREEQYNATYRVVSVLTVLHQDWLNGKEYKCKVSNKALPAPIEKTISKAKGQPREPQVYTLPPSRDELTKNQVSLTCLVKGFYPSDIAVEWESNGQPENNYKTTPPVLDSDGSFFLYSKLTVDKSRWQQGNVFSCSVMHEALHNHYTQESLSLSP light: DIVMTQSPLSLPVTPGEPASISCQASESLVHSNRNTYLHWYLQKPGQSPQLLIYKVSNRFSGVPDRFSGSGSGTDFTLKISRVEAEDVGVYYCSQNTHVPPTFGQGTKVEIERTVAAPSVFIFPPSDEQLKSGTASVVCLLNNFYPREAKVQWKVDNALQSGNSQESVTEQDSKDSTYSLSSTLTLSKADYEKHKVYACEVTHQGLSSPVTKSFNRGEC", "values": [{"measurement": "FcγRIIIa F/FcγRIIb ratio", "value": 5.3}]}
